Experimental data from publication PMC9369050.
Several values for one entry are separate records, joined by “and”; a condition that tells them apart may be missing. Identical values can stand only once.

Legend:
[1] = biological target: Bacterial His-tagged Reg-1α (human regenerating islet-derived protein 1-alpha) (human) (UniProt P05451); experiment: SDS-PAGE with immunoblot, no cross-linker; bands of oligomers that persist in SDS-PAGE, detected with anti-Reg-1α (Figure 1C; time 0 of Figure 2A)
[2] = biological target: Bacterial His-tagged Reg-1α (human regenerating islet-derived protein 1-alpha) (human) (UniProt P05451); experiment: cross-linking; 10 mM EDC/NHS, up to 30 min (0, 15, 30 min); Reg-1α with inactive calpain-2 at molar ratio 2/1, or Reg-1α alone; 50 mM Hepes pH 7.3, 100 mM NaCl, 1 mM DTT, 1 mM EGTA; SDS-PAGE 4-15% and immunodetection with anti-Reg-1α and anti-calpain-2
[3] = biological target: Calpain-2-cleaved Reg-1α (Reg-1αΔN1-4) (human); experiment: SDS-PAGE with immunoblot, no cross-linker; bands of oligomers that persist in SDS-PAGE, detected with anti-Reg-1α (Figure 1C; time 0 of Figure 2A)

Row | stoichiometry N [1] | stoichiometry N [2] | stoichiometry N [3] | Substance
1 | 2 and 3 | 4 |  | Bacterial His-tagged Reg-1α (human regenerating islet-derived protein 1-alpha) (from UniProt P05451 23-166) (natural protein)
2 |  |  | 2 | Calpain-2-cleaved Reg-1α (Reg-1αΔN1-4) (domain or fragment)
